# According to the supplement of paper PMC11246515:
# ± gives the standard deviation of the averaged measurements.
# Test: total protein half-life in vivo (active degradation + dilution); higher = more stable protein
# [1] = E. coli NCM3722 delta-clpP delta-lon delta-hslV, growth: N-lim chemostat, doubling time 6 h
# [2] = E. coli NCM3722 delta-clpP, growth: N-lim chemostat, doubling time 6 h
# [3] = E. coli NCM3722 delta-hslV, growth: N-lim chemostat, doubling time 6 h
# [4] = E. coli NCM3722 delta-lon, growth: N-lim chemostat, doubling time 6 h
# [5] = E. coli NCM3722 delta-smpB, growth: N-lim chemostat, doubling time 6 h
# [6] = wild type E. coli NCM3722, growth: C-lim chemostat, doubling time 3 h
# [7] = wild type E. coli NCM3722, growth: C-lim chemostat, doubling time 6 h
# [8] = wild type E. coli NCM3722, growth: C-lim chemostat, doubling time 12 h
# [9] = wild type E. coli NCM3722, growth: N-lim chemostat, doubling time 6 h
# [10] = wild type E. coli NCM3722, growth: N-lim chemostat, doubling time 12 h
# [11] = wild type E. coli NCM3722, growth: P-lim chemostat, doubling time 6 h
# [12] = wild type E. coli NCM3722, growth: P-lim chemostat, doubling time 12 h
Sequence,total protein half-life in vivo [1] [h],total protein half-life in vivo [2] [h],total protein half-life in vivo [3] [h],total protein half-life in vivo [4] [h],total protein half-life in vivo [5] [h],total protein half-life in vivo [6] [h],total protein half-life in vivo [7] [h],total protein half-life in vivo [8] [h],total protein half-life in vivo [9] [h],total protein half-life in vivo [10] [h],total protein half-life in vivo [11] [h],total protein half-life in vivo [12] [h]
MTRPVTLSEPHFSQHTLNKYASLMAQGNGYLGLRASHEEDYTRQTRGMYLAGLYHRAGKGEINELVNLPDVVGMEIAINGEVFSLSHEAWQRELDFASGELRRNVVWRTSNGSGYTIASRRFVSADQLPLIALEITITPLDADASVLISTGIDATQTNHGRQHLDETQVRVFGQHLMQGSYTTQDGRSDVAISCCCKVSGDVQQCYTAKERRLLQHTSAQLHAGETMTLQKLVWIDWRDDRQAALDEWGSASLRQLEMCAQQSYDQLLAASTENWRQWWQKRRITVNGGEAHDQQALDYALYHLRIMTPAHDERSSIAAKGLTGEGYKGHVFWDTEVFLLPFHLFSDPTVARSLLRYRWHNLPGAQEKARRNGWQGALFPWESARSGEEETPEFAAINIRTGLRQKVASAQAEHHLVADIAWAVIQYWQTTGDESFIAHEGMALLLETAKFWISRAVRVNDRLEIHDVIGPDEYTEHVNNNAYTSYMARYNVQQALNIARQFGCSDDAFIHRAEMFLKELWMPEIQPDGVLPQDDSFMAKPAINLAKYKAAAGKQTILLDYSRAEVNEMQILKQADVVMLNYMLPEQFSAASCLANLQFYEPRTIHDSSLSKAIHGIVAARCGLLTQSYQFWREGTEIDLGADPHSCDDGIHAAATGAIWLGAIQGFAGVSVRDGELHLNPALPEQWQQLSFPLFWQGCELQVTLDAQRIAIRTSAPVSLRLNGQLITVAEESVFCLGDFILPFNGTATKHQEDE,5.63,,,,,,,,,,,
MTSGLERLSNLLSKKDSVFVSDLLREAKVNELDETLSTTRLNHLIDKGYERITLQLDLGGESPGYLEKDKHYREADAALLNVIYPTNLSKINTRRKEQV,4.54,,,,,,,,,,,
MTSLYLASGSPRRQELLAQLGVTFERIVTGIEEQRQPQESAQQYVVRLAREKARAGVAQTAKDLPVLGADTIVILNGEVLEKPRDAEHAAQMLRKLSGQTHQVMTAVALADSQHILDCLVVTDVTFRTLTDEDIAGYVASDEPLDKAGAYGIQGLGGCFVRKINGSYHAVVGLPLVETYELLSNFNALREKRDKHDG,4.55 ± 0.58,3.38 ± 0.24,3.17 ± 0.25,3.02,3.26 ± 0.49,3.2 ± 0.29,5.629 ± 0.034,8.84 ± 0.45,3.15 ± 0.4,4.52,5.41,11.9 ± 1.7
MTTFHSLTVAKVESETRDAVTITFAVPQPLQEAYRFRPGQHLTLKASFDGEELRRCYSICRSYLPGEISVAVKAIEGGRFSRYAREHIRQGMTLEVMVPQGHFGYQPQAERQGRYLAIAAGSGITPMLAIIATTLQTEPESQFTLIYGNRTSQSMMFRQALADLKDKYPQRLQLLCIFSQETLDSDLLHGRIDGEKLQSLGASLINFRLYDEAFICGPAAMMDDAETALKALGMPDKTIHLERFNTPGTRVKRSVNVQSDGQKVTVRQDGRDREIVLNADDESILDAALRQGADLPYACKGGVCATCKCKVLRGKVAMETNYSLEPDELAAGYVLSCQALPLTSDVVVDFDAKGMA,4.66 ± 0.67,,,,,,,,,,,
MTTHLVWFRQDLRLHDNLALAAACRNSSARVLALYIATPRQWATHNMSPRQAELINAQLNGLQIALAEKGIPLLFREVDDFVASVEIVKQVCAENSVTHLFYNYQYEVNERARDVEVERALRNVVCEGFDDSVILPPGAVMTGNHEMYKVFTPFKNAWLKRLREGMPECVAAPKVRSSGSIEPSPSITLNYPRQSFDTAHFPVEEKAAIAQLRQFCQNGAGEYEQQRDFPAVEGTSRLSASLATGGLSPRQCLHRLLAEQPQALDGGAGSVWLNELIWREFYRHLITYHPSLCKHRPFIAWTDRVQWQSNPAHLQAWQEGKTGYPIVDAAMRQLNSTGWMHNRLRMITASFLVKDLLIDWREGERYFMSQLIDGDLAANNGGWQWAASTGTDAAPYFRIFNPTTQGEKFDHEGEFIRQWLPELRDVPGKVVHEPWKWAQKAGVTLDYPQPIVEHKEARVQTLAAYEAARKGK,5.62 ± 0.31,6.1 ± 1,6.2 ± 0.4,6.08 ± 0.8,5.35 ± 0.34,3.23 ± 0.22,6.25 ± 0.49,11.533 ± 0.011,5.49 ± 0.16,11.1 ± 0.21,6.17 ± 0.76,11.62 ± 0.014
MTTILKHLPVGQRIGIAFSGGLDTSAALLWMRQKGAVPYAYTANLGQPDEEDYDAIPRRAMEYGAENARLIDCRKQLVAEGIAAIQCGAFHNTTGGLTYFNTTPLGRAVTGTMLVAAMKEDGVNIWGDGSTYKGNDIERFYRYGLLTNAELQIYKPWLDTDFIDELGGRHEMSEFMIACGFDYKMSVEKAYSTDSNMLGATHEAKDLEYLNSSVKIVNPIMGVKFWDESVKIPAEEVTVRFEQGHPVALNGKTFSDDVEMMLEANRIGGRHGLGMSDQIENRIIEAKSRGIYEAPGMALLHIAYERLLTGIHNEDTIEQYHAHGRQLGRLLYQGRWFDSQALMLRDSLQRWVASQITGEVTLELRRGNDYSILNTVSENLTYKPERLTMEKGDSVFSPDDRIGQLTMRNLDITDTREKLFGYAKTGLLSSSAASGVPQVENLENKGQ [P0A6E4],4.11 ± 0.6,3.3 ± 0.15,3.2 ± 0.23,3.89 ± 0.34,3.26 ± 0.15,3.17 ± 0.06,5.27 ± 0.081,9.91 ± 0.69,3.39 ± 0.12,4.82 ± 0.071,5.69 ± 0.15,10.7 ± 0.7
MTTIVSVRRNGHVVIAGDGQATLGNTVMKGNVKKVRRLYNDKVIAGFAGGTADAFTLFELFERKLEMHQGHLVKAAVELAKDWRTDRMLRKLEALLAVADETASLIITGNGDVVQPENDLIAIGSGGPYAQAAARALLENTELSAREIAEKALDIAGDICIYTNHFHTIEELSYKA [P0A7B8],,5.42 ± 0.062,,6.49 ± 0.19,5.3 ± 0.5,2.72 ± 0.33,6.23 ± 0.091,10.2 ± 1.4,5.716 ± 0.023,9.85 ± 1,5.74 ± 0.23,
MTTKRKPYVRPMTSTWWKKLPFYRFYMLREGTAVPAVWFSIELIFGLFALKNGPEAWAGFVDFLQNPVIVIINLITLAAALLHTKTWFELAPKAANIIVKDEKMGPEPIIKSLWAVTVVATIVILFVALYW [P0A8Q0],5.7 ± 0.4,,5.78 ± 0.49,6.06 ± 0.09,6.13 ± 0.39,2.81 ± 0.031,5.55 ± 0.079,10.9 ± 0.46,5.63 ± 0.14,11.3 ± 1.9,5.09 ± 0.12,12.5 ± 0.33
MTTLAIDIGGTKLAAALIGADGQIRDRRELPTPASQTPEALRDALSALVSPLQAHAQRVAIASTGIIRDGSLLALNPHNLGGLLHFPLVKTLEQLTNLPTIAINDAQAAAWAEFQALDGDITDMVFITVSTGVGGGVVSGCKLLTGPGGLAGHIGHTLADPHGPVCGCGRTGCVEAIASGRGIAAAAQGELAGADAKTIFTRAGQGDEQAQQLIHRSARTLARLIADIKATTDCQCVVVGGSVGLAEGYLALVETYLAQEPAAFHVDLLAAHYRHDAGLLGAALLAQGEKL,4.69 ± 0.65,4.78 ± 0.069,4.19 ± 0.69,3.56 ± 1.9,4.85 ± 0.36,2.57 ± 0.17,5 ± 0.45,9.07 ± 0.36,5.02 ± 0.21,5.13 ± 2.2,,10.5 ± 0.22
MTTLLNPYFGEFGGMYVPQILMPALRQLEEAFVSAQKDPEFQAQFNDLLKNYAGRPTALTKCQNITAGTNTTLYLKREDLLHGGAHKTNQVLGQALLAKRMGKTEIIAETGAGQHGVASALASALLGLKCRIYMGAKDVERQSPNVFRMRLMGAEVIPVHSGSATLKDACNEALRDWSGSYETAHYMLGTAAGPHPYPTIVREFQRMIGEETKAQILEREGRLPDAVIACVGGGSNAIGMFADFINETNVGLIGVEPGGHGIETGEHGAPLKHGRVGIYFGMKAPMMQTEDGQIEESYSISAGLDFPSVGPQHAYLNSTGRADYVSITDDEALEAFKTLCLHEGIIPALESSHALAHALKMMRENPDKEQLLVVNLSGRGDKDIFTVHDILKARGEI [P0A879],3.87 ± 0.32,3.49 ± 0.14,3.48 ± 0.17,3.69 ± 0.27,3.78 ± 0.36,2.95 ± 0.1,5.28 ± 0.27,9.833 ± 0.072,3.54 ± 0.042,5.38 ± 0.17,6.4 ± 1.5,11.5 ± 1.2
MTTLTARPEAITFDPQQSALIVVDMQNAYATPGGYLDLAGFDVSTTRPVIANIQTAVTAARAAGMLIIWFQNGWDEQYVEAGGPGSPNFHKSNALKTMRKQPQLQGKLLAKGSWDYQLVDELVPQPGDIVLPKPRYSGFFNTPLDSILRSRGIRHLVFTGIATNVCVESTLRDGFFLEYFGVVLEDATHQAGPKFAQKAALFNIETFFGWVSDVETFCDALSPTSFAHIA,4.33 ± 0.13,1.41 ± 0.23,0.334,0.503 ± 0.025,0.441,,,,,0.812,,
MTTLTLVLTAVGSVLLLLFLVMKARMHAFLALMVVSMGAGLFSGMPLDKIAATMEKGMGGTLGFLAVVVALGAMFGKILHETGAVDQIAVKMLKSFGHSRAHYAIGLAGLVCALPLFFEVAIVLLISVAFSMARHTGTNLVKLVIPLFAGVAAAAAFLVPGPAPMLLASQMNADFGWMILIGLCAAIPGMIIAGPLWGNFISRYVELHIPDDISEPHLGEGKMPSFGFSLSLILLPLVLVGLKTIAARFVPEGSTAYEWFEFIGHPFTAILVACLVAIYGLAMRQGMPKDKVMEICGHALQPAGIILLVIGAGGVFKQVLVDSGVGPALGEALTGMGLPIAITCFVLAAAVRIIQGSATVACLTAVGLVMPVIEQLNYSGAQMAALSICIAGGSIVVSHVNDAGFWLFGKFTGATEAETLKTWTMMETILGTVGAIVGMIAFQLLS [P0AC96],,6.49,5.93,,,,,,5.18,,,12.9
MTTMLEVAKRAGVSKATVSRVLSGNGYVSQETKDRVFQAVEESGYRPNLLARNLSAKSTQTLGLVVTNTLYHGIYFSELLFHAARMAEEKGRQLLLADGKHSAEEERQAIQYLLDLRCDAIMIYPRFLSVDEIDDIIDAHSQPIMVLNRRLRKNSSHSVWCDHKQTSFNAVAELINAGHQEIAFLTGSMDSPTSIERLAGYKDALAQHGIALNEKLIANGKWTPASGAEGVEMLLERGAKFSALVASNDDMAIGAMKALHERGVAVPEQVSVIGFDDIAIAPYTVPALSSVKIPVTEMIQEIIGRLIFMLDGGDFSPPKTFSGKLIRRDSLIAPSR,,4.95,3.46 ± 0.2,4.26 ± 0.14,3.44 ± 0.13,3 ± 0.72,4.91 ± 0.77,8.06 ± 0.59,3.59,5.73 ± 0.34,2.66 ± 0.17,7.06 ± 0.59
MTTPTFDTIEAQASYGIGLQVGQQLSESGLEGLLPEALVAGIADALEGKHPAVPVDVVHRALREIHERADAVRRQRFQAMAAEGVKYLEENAKKEGVNSTESGLQFRVINQGEGAIPARTDRVRVHYTGKLIDGTVFDSSVARGEPAEFPVNGVIPGWIEALTLMPVGSKWELTIPQELAYGERGAGASIPPFSTLVFEVELLEIL [P0A9L3],4.93 ± 0.29,4.54 ± 0.58,3.72 ± 0.16,5 ± 0.44,3.45 ± 0.19,3.06 ± 0.2,5.67 ± 0.37,10.4 ± 0.65,3.59 ± 0.1,5.3 ± 0.15,5.591 ± 0.04,11 ± 0.86
MTTQRSPGLFRRLAHGSLVKQILVGLVLGILLAWISKPAAEAVGLLGTLFVGALKAVAPILVLMLVMASIANHQHGQKTNIRPILFLYLLGTFSAALAAVVFSFAFPSTLHLSSSAGDISPPSGIVEVMRGLVMSMVSNPIDALLKGNYIGILVWAIGLGFALRHGNETTKNLVNDMSNAVTFMVKLVIRFAPIGIFGLVSSTLATTGFSTLWGYAQLLVVLVGCMLLVALVVNPLLVWWKIRRNPFPLVLLCLRESGVYAFFTRSSAANIPVNMALCEKLNLDRDTYSVSIPLGATINMAGAAITITVLTLAAVNTLGIPVDLPTALLLSVVASLCACGASGVAGGSLLLIPLACNMFGISNDIAMQVVAVGFIIGVLQDSCETALNSSTDVLFTAAACQAEDDRLANSALRN [P0AGE4],5.56 ± 0.69,5.78,6.04,5.28,6.21 ± 0.49,3.36,5.87 ± 0.55,12.3 ± 0.23,5.94 ± 0.44,11.6,5.5355 ± 0.00083,10.7 ± 0.53
